# Where no end group is shown, it is not given here. [ ]: non-standard residue; d: D form. The star is where a group is joined. Palmitoyl = CCCCCCCCCCCCCCCC(=O)*; Aib = CC(C)(N)C(=O)O
# T1: GIP receptor, P48546
# T1 chain: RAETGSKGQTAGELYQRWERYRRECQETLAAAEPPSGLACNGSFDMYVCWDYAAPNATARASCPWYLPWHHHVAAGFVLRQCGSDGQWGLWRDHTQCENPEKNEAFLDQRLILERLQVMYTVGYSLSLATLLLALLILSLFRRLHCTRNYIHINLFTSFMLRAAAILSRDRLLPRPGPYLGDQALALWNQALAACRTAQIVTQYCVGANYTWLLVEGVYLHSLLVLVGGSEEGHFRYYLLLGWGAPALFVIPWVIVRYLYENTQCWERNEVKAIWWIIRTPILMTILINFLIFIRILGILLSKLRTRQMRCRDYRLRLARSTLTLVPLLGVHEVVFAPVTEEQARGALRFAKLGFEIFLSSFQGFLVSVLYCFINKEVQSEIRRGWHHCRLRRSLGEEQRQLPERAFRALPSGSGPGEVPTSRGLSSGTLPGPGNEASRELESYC
# T2: GLP-1 receptor, P43220
# T2 chain: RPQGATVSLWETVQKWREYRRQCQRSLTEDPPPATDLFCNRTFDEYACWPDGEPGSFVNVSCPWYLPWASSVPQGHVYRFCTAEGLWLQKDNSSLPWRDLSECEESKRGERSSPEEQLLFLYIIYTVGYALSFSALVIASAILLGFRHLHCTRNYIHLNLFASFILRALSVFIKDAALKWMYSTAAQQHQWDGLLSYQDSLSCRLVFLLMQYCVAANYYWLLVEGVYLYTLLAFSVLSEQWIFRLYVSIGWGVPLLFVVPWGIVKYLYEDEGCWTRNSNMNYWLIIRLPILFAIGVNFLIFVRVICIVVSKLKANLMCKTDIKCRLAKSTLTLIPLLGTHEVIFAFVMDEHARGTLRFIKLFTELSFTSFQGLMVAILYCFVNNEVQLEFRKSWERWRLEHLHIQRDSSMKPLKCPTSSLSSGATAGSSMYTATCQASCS
# B1: mt-297 (peptide)
# peptide: Y[Aib]QGTFTSDYSIYLDKQAA[Aib]EFVCWLMNGGPSSGAPPPSK(Palmitoyl)-NH2
# modifications: N-terminus assumed
# SMILES: CCCCCCCCCCCCCCCC(=O)NCCCC[C@H](NC(=O)[C@H](CO)NC(=O)[C@@H]1CCCN1C(=O)[C@@H]1CCCN1C(=O)[C@@H]1CCCN1C(=O)[C@H](C)NC(=O)CNC(=O)[C@H](CO)NC(=O)[C@H](CO)NC(=O)[C@@H]1CCCN1C(=O)CNC(=O)CNC(=O)[C@H](CC(N)=O)NC(=O)[C@H](CCSC)NC(=O)[C@H](CC(C)C)NC(=O)[C@H](Cc1c[nH]c2ccccc12)NC(=O)[C@H](CS)NC(=O)[C@@H](NC(=O)[C@H](Cc1ccccc1)NC(=O)[C@H](CCC(=O)O)NC(=O)C(C)(C)NC(=O)[C@H](C)NC(=O)[C@H](C)NC(=O)[C@H](CCC(N)=O)NC(=O)[C@H](CCCCN)NC(=O)[C@H](CC(=O)O)NC(=O)[C@H](CC(C)C)NC(=O)[C@H](Cc1ccc(O)cc1)NC(=O)[C@@H](NC(=O)[C@H](CO)NC(=O)[C@H](Cc1ccc(O)cc1)NC(=O)[C@H](CC(=O)O)NC(=O)[C@H](CO)NC(=O)[C@@H](NC(=O)[C@H](Cc1ccccc1)NC(=O)[C@@H](NC(=O)CNC(=O)[C@H](CCC(N)=O)NC(=O)C(C)(C)NC(=O)[C@@H](N)Cc1ccc(O)cc1)[C@@H](C)O)[C@@H](C)O)[C@@H](C)CC)C(C)C)C(N)=O
# Assays:
# Assay in all cases: cell-based or functional assay
# GIP receptor, P48546 = molecular target: T1, GIP receptor, P48546
# GLP-1 receptor, P43220 = molecular target: T2, GLP-1 receptor, P43220
# [1] = molecular target: glucagon receptor, P47871
# glucagon receptor, P47871, sequence (P47871 26-477 limits assumed): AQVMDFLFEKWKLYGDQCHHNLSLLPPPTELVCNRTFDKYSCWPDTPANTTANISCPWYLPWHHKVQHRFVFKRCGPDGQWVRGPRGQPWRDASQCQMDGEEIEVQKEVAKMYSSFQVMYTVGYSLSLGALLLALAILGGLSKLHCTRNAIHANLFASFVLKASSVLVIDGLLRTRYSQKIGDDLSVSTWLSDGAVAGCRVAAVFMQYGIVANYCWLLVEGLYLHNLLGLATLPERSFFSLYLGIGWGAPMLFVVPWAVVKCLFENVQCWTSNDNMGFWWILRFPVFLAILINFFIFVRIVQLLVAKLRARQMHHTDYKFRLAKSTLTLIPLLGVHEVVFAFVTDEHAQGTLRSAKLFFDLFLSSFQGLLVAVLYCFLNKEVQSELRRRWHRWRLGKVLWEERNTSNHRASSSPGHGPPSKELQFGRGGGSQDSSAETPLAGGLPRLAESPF
binder,measurement,setting,value
B1,EC50,"GIP receptor, P48546",0.0168 nM
same,EC50,"GLP-1 receptor, P43220",0.0129 nM
same,EC50,[1],0.0132 nM
